From US20180298051A1 come the findings set out here.

Common to all, as to assay: cell-based or functional assay
Experiment [1] deals with C-terminal HA tagged human Leptin receptor on LepR SIE-Bla cells (human) (UniProt P48357).
Experiment [2] deals with human LepR on Baf3 LepR cells (human) (UniProt P48357).
Experiment [3] has as its target human FSHR on FSHR CRE-Bla cells (human) (UniProt P23945).

C-terminal HA tagged human Leptin receptor on LepR SIE-Bla cells (human), sequence (P48357 22-1165): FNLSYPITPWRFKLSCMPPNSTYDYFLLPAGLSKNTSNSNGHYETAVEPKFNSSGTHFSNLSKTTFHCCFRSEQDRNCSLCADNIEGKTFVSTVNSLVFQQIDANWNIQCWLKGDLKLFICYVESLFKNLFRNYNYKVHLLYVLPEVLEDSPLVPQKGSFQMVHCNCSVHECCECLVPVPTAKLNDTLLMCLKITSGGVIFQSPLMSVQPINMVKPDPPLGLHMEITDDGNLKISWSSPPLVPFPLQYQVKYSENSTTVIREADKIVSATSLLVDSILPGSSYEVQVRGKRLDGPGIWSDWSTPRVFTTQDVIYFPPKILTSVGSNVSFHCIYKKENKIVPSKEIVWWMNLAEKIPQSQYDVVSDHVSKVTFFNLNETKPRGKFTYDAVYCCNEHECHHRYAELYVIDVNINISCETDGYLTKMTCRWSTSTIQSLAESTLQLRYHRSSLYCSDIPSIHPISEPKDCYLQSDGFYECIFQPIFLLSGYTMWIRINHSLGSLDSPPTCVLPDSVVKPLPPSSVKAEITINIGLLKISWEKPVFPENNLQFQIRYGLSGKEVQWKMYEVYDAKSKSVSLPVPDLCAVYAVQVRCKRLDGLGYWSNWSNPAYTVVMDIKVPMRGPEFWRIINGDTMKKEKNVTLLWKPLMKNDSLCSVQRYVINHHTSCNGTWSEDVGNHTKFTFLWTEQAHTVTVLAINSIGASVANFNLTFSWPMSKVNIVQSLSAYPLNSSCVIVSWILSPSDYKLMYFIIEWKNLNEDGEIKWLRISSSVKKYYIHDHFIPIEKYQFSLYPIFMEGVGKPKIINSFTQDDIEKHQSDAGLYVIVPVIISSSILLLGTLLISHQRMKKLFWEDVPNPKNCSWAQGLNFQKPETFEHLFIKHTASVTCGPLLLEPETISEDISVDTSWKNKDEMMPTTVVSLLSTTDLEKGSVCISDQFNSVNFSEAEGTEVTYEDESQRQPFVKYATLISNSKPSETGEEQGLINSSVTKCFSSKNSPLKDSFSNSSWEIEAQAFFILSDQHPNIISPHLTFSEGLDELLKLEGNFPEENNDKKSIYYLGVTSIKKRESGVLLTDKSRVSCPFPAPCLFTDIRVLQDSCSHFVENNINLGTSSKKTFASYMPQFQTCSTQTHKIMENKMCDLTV
human LepR on Baf3 LepR cells (human), sequence (P48357 22-1165): as above
human FSHR on FSHR CRE-Bla cells (human), sequence (P23945 18-695): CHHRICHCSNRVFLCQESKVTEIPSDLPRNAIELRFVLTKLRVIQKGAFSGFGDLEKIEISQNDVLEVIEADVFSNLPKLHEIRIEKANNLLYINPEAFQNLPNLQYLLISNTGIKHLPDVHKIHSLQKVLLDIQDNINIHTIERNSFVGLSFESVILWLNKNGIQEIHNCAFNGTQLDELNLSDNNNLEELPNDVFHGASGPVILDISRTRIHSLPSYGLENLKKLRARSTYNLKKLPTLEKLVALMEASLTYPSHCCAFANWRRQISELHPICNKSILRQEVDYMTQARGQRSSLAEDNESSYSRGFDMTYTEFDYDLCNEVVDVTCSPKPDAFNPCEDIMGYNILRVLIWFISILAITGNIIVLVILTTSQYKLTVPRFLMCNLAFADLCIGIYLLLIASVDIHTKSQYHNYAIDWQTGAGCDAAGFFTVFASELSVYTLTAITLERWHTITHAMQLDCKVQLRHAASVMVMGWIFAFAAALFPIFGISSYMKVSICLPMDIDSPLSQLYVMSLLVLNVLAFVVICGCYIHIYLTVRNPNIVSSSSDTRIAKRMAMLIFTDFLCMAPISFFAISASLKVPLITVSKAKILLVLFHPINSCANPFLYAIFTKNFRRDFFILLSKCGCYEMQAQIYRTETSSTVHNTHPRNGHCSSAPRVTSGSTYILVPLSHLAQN

For the substance “recombinant human Leptin protein (from UniProt P41159 22-167) (ligand)”, in experiment [1], the EC50, FRET assay using the beta-lactamase-based LepR SIE-Bla cell line is 313 pM and the response ratio in a fluorescence resonance energy transfer (FRET) assay, LepR SIE-Bla cells stood at 8.5. In experiment [2], this substance gave an EC50, proliferation assay using the Baf3 LepR cell line of 310 pM.

Substance “single chain FSH (from UniProt P01225 19-129; P01215 25-116) (ligand)” displayed an EC50, FRET assay using the beta-lactamase-based FSHR CRE-Bla cell line in experiment [3] of 5.7 pM.
